First the molecules themselves.
T1: B7H3-hFc (UniProt Q5ZPR3 29-466, limits assumed)
T1 construct: Construct limits, linker and Fc not described; also called B7H3-hFc protein; not shown: human Fc (hFc)
T1 sequence (looked up): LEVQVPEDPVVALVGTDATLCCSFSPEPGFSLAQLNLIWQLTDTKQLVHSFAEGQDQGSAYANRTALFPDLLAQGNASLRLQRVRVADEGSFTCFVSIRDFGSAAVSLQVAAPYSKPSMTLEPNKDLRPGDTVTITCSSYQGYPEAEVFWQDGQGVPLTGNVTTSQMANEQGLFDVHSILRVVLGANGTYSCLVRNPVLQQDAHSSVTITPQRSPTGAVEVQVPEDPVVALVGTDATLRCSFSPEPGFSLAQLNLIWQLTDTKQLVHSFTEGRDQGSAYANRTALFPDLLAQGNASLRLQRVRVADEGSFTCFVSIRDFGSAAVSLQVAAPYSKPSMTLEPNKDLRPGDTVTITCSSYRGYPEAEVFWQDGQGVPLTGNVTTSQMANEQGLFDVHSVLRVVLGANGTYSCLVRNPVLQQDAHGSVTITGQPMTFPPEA

T2: B7H3 on the cell surface (PC9 cells; 293T-B7H3 cells) (UniProt Q5ZPR3 29-534, limits assumed)
T2 construct: whole, on cells; both carry B7H3 on the surface; also called Cell Surface B7H3; B7H3 protein in PC9 cells
T2 sequence (looked up): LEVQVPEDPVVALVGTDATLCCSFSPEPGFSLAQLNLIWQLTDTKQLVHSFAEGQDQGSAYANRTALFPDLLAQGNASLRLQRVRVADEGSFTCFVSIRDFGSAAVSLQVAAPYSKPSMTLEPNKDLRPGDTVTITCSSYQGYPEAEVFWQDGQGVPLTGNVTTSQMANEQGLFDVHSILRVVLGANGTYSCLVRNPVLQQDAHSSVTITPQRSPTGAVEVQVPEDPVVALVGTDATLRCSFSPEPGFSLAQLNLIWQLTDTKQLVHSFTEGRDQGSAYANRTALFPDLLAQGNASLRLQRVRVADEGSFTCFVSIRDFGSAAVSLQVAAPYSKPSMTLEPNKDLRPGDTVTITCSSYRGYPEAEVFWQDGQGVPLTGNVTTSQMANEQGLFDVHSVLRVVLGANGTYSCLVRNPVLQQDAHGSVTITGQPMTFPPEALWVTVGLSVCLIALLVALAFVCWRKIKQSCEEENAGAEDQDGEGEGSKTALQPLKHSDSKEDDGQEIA

B1: 7E6 (antibody, mouse IgG1, V domains shown)
VH: QVQLQQSGPELVRPGVSVKISCKGSGYTFTDYAMHWVKQSHAKSLEWIGVINSYYGNTHYNQKFKGKATMTVDKSSSTAYMELARLTSEDSAIYYCARAGGYSYGSSYRPDRFAYWGQGTLVIVSA
VL: DIQMTQSPASQSASLGESVTITCLASQTIGTWLAWYQQKPGKSPQLLIYAATNLADGVPSRFSGSGSGTKFSFKISSLQAEDFVSYYCQQLYSTPYTFGGGTKLEIK
notes: Murine hybridoma antibody; also called B7H3 hybridoma monoclonal antibody 7E6
B2: 2F7 (antibody, mouse IgG2b, V domains shown)
VH: QVQLQQPGAELVKPGASVKLSCKASGYTFTSYYIYWLKQRPGQGLEWIGGIKPSNGDTNFNAKFMNKATLTVDKSSSTAYMQLSSLTSEDSAIYYCTRFFYGSPYDFDVWGAGTTVTVSS
VL: NIVMTQSPKSMSMAVGERVTLTCKASENVDTHVSWYQQKPEQSPTLLMYGTSNRFTGVPDRFTGSGSATDFTLTISSVQAEDLADYHCGQSYRYPYTFGGGTKLEIK
notes: Murine hybridoma antibody; also called B7H3 hybridoma monoclonal antibody 2F7
B3: 14B3 (antibody, mouse IgG1, V domains shown)
VH: QVQLQQSGPELVRPGVSVKISCKGSGYTFTDHAIHWVKQSHAKSLEWIGVINTYSGNTNFNQKLKGKATMTVDKSSSTAYMELARLTSEDSAIYYCARGAHSSGYPYWYFDVWGAGTTVTVSS
VL: QIVLSQSPAILSASAGEKVTMTCRASSSVSYMHWYQQKPGSSPKPWIYATSNLASGVPARFSGSGSGTSYSLTISRVEAEDAATYYCQQWSTNPFTFGSGTKLEMK
notes: Murine hybridoma antibody; also called B7H3 hybridoma monoclonal antibody 14B3
B4: 7F5 (antibody, mouse IgG1, V domains shown)
VH: EVQLQQSGAELVRPGALVKLSCKTSGFNIKAYYIHWVKQRPEQGLEWIGWIDPENGNTFYDPKFQGKASITADTSSNTAYLQLSSLTSEDAAVYYCTRSSTRLRPFDYWGQGTTLTVSS
VL: DIVMTQAAFSNPVTLGTSASISCRSSKSLLHSNGITYLYWYLQKSGQSPQLLIYQMSNLASGVPDRFSSSGSGTDFTLRISRVEAEDVGVYYCAQNLELYTFGGGTKLEIK
notes: Murine hybridoma antibody purified by protein A; also called B7H3 hybridoma monoclonal antibody 7F5
B5: 15A2 (antibody, mouse IgG1, V domains shown)
VH: QVQLQQSGPEVVKPGALVRISCKASGYTFTSYDINWVKQRPGQGLEWIGWIDPGDGSTKYNEKFKGKATLTADKSSSTAYMQFSSLTSENSAVYFCVRRGFDYWGQGTTLTVSS
VL: QILLTQSPAIMSASPGEKVTMTCRTSSSVSYLHWFQQKPGSSPKLWIHDTSNLASGFPARFSGSGSGTSYSLIISSMEAEDAATYYCHQRSSYPWTFGGGTKLEIK
notes: Murine hybridoma antibody; also called B7H3 hybridoma monoclonal antibody 15A2
B6: 2E10 (antibody, mouse IgG2a, V domains shown)
VH: EVQLQQSGPELVKPGASVKISCKTSGYTFTEYTMHWVKQSHGKNLEWIGGINTDNGGTTYSQKFKDKATLTVDRSSSTAYMVLRSLTSEDSAVYYCARSFNNYGPAWFAYWGQGALVTVSA
VL: DIVMTQSHKFMSTSIGDRVSITCKASQDVRSAVAWYQQRPGQSPKLLIYWASTRHTGVPARFTGSGSGTDYTLTINNVQSEDLAGYFCQQYSSYFTFGGGTKLEKK
notes: Murine hybridoma antibody; also called B7H3 hybridoma monoclonal antibody 2E10
B7: 9C8 (antibody, mouse IgG1, V domains shown)
VH: EVQLQQSGPELVKPGASVKISCKTSGYTFTEYTIHWVKQSHGKSLEWIGGINPNSGGTTYNLKFKGKATLTVDKSSSTVYMELRSLTSEDSAVYYCARKEGFFTTDYWGQGTTLTVSS
VL: QTVLTQSPAIMSASPGEKVTMTCSASSSLSYIHWYRQKSGTSPKRWIYDTSNLATGVPVRFSGSGSGTSYSLTISSMEAEDAATYYCQQWHYNPPTFGGGTKLEIK
notes: Murine hybridoma antibody; also called B7H3 hybridoma monoclonal antibody 9C8
B8: 7B7 (antibody, mouse IgG2b, V domains shown)
VH: EVKLVESGGGLVRPGGSLKLSCAASGFTFSSYAVSWVRQTPEKRLEWVASISGGGIYIYYPDSVKGRFTISRDNAKNNLYLQMNSLTPDDTALYYCARHGGAGYFDYWGQGTTLTVSS
VL: DSLMTQSPASLSASVGETVTITCRGSESVHSYLAWYQQKQGKSPQLLVYNAKTLQSGVPSRFSGSGSGTQFSLRINSLQPEDFGTYYCQQHYGSPPWTFGGGTILEIK
notes: Murine hybridoma antibody; also called B7H3 hybridoma monoclonal antibody 7B7
B9: 13A2 (antibody, mouse IgG2b, V domains shown)
VH: EVQLQQSGPELVKPGASVKISCKTSGYTFTEYVMHWVKQRHGQSLEWIGGINPNTGGTTYNQKFEGKATLTVDKSSSSAYMEFRSLTSEDSAVYYCARRMPFGISAMDYWGQGTSVTVSS
VL: QIVLTQSPAIMSASPGEKVTMTCSASSSVSYIHWFQQKSGTSPKRWISETSKLASGVPARFSGSGSGTSYSLTISSMGAEDAATYYCHQWISYPPTFGAGTKLELK
notes: Murine hybridoma antibody; also called B7H3 hybridoma monoclonal antibody 13A2
B10: 2A9 (antibody, mouse IgG2b, V domains shown)
VH: EVQLQQSGPELVKPGASVKISCKTSGYTFTEYIMHWVKQSRGKSLEWIGGINPNSGGTTYNEKFKGKATLTVDKSASTAYMELRSLTSEDSAIYYCARRMPYWYFDVWGAGTTVTVSS
VL: B9 VL with F35Y, Q36R, I47V, S48Y, E49D, G78E, H88Q, I91V, Y93N, P95L
notes: Murine hybridoma antibody; also called B7H3 hybridoma monoclonal antibody 2A9
B11: 7C9 (antibody, mouse IgG1, V domains shown)
VH: EVQLQQSGTELVRPGALVKLSCKASALNIKDFYMHWVKQRPERGLEWIGWIDPDNGNTIYDPKFQGKASITADISSSTAYLQLSSLTSEDTAVYYCARSSTRQRPFDYWGQGTTLTVSS
VL: DIVMTQSHKVMSTSVGDRVSITCKASQDVRTGVAWYQQKPGQSPKLLIYSAFYRYTGVPDRFTVSGSGADFTFTITSVQAEDLAVYYCQQYYSIPWTFGGGTKLEIK
notes: Murine hybridoma antibody; also called B7H3 hybridoma monoclonal antibody 7C9
B12: 5B6 (antibody, mouse IgG1, V domains shown)
VH: QVQLQQSGAELARPGASVKMSCKTSGYTFITYTIHWVKQRPGQGLEWIGYINPTSDYANFNQKFKDKATLTADKSSRTAYMQLSSLTSEDSAVYYCARWGTTVFQFYFDYWGQGTTLTVSS
VL: QIVLSQSPAILSASPGEKVTMTCRASQSLSYINWYQLKPGSSPKPWIYATSSLQSGVPARFSGSASGTSYSLTISRVEAEDAATYFCQHWSSDPPTIGGGTKLEIK
notes: Murine hybridoma antibody; also called B7H3 hybridoma monoclonal antibody 5B6
B13: 2F12 (antibody, mouse IgG1, V domains shown)
VH: EVQLQQSGPELVKSGASVNISCKTSGYTFTENTMHWVKLSHGKSLEWIGGINPNNGGTTYNQKFKGKATLTVDKSSSTAYMELRSLTSEDSAVYYCARRGRWPPDWYFDVWGAGTTVTVSS
VL: B9 VL with V29L, I32M, F35Y, S48Y, E49D, G78E, H88Q, I91S, Y93N, P95L
notes: Murine hybridoma antibody; also called B7H3 hybridoma monoclonal antibody 2F12

Substitutions are numbered along the chain they refer to.

The first test addresses T1, B7H3-hFc. The experiment in a line: ELISA, B7H3-hFc coated plate, purified hybridoma antibody. How it is done:
(1) Screening of B7H3-binding positive clones through ELISA: 50 μL of B7H3-hFc (final concentration: 2 μg/mL) was used to coat each well of a 96-well ELISA plate (Corning, Cat. No.: 9018), and incubated overnight at room temperature. After the ELISA plate was rinsed with washing buffer (PBS+0.05% Tween20) 3 times, blocking buffer (PBS+2% BSA (Sigma, Cat. No.: V90093)) was added and the ELISA plate was incubated at room temperature for 1 hour. The ELISA plate was rinsed with washing buffer 3 times; and hybridoma supernatant was added, and the ELISA plate was incubated at room temperature for 1 hour and rinsed 3 times. 100 μL of 10,000-fold diluted HRP-conjugated goat anti-mouse IgG secondary antibody (Thermo, Cat. No.: 31432) was added to each well, and the ELISA plate was incubated at room temperature for 1 hour in the dark and rinsed 3 times. 100 μL of TMB (Biocytogen, Cat. No.: ES-002) was added to each well, and the ELISA plate was incubated at room temperature for color development for 2 minutes, 100 μL of reaction terminating solution (2N H2SO4) was added to each well to terminate the color reaction, and an OD450 value of each well was read using a microplate reader (Tecan Spark). (2) Screening of B7H3-binding positive clones through FACS: 50 μL of the positive hybridoma supernatant or purified hybridoma antibody in the foregoing test was mixed with 50 μL of 293T-B7H3 cells (2×10⁵ cells/well), and a resulting mixture was added to a 96-well plate with a U-shaped bottom and left standing at 4° C. for 1 hour, the 96-well plate was rinsed with FACS buffer (PBS+3% FCS) and centrifuged twice, then 400-fold diluted PE-labeled goat anti-mouse secondary antibody (Biolegend, Cat. No.: 405307) was added, the 96-well plate was incubated at 4° C. for 30 minutes in the dark, rinsed with FACS buffer and centrifuged twice, and signal values of the cells in a PE channel were detected by using BD Accuri C6 flow cytometer. (3) Subcloning: Positive multiclonal hybridoma cells identified by ELISA and FACS were subcloned using the limiting dilution method. The subclones were further detected and screened using ELISA and FACS to obtain positive hybridoma monoclonal clones.
ELISA and FACS were conducted to detect the binding ability of purified antibody samples to B7H3. Results are shown in FIG. 1(a-b), FIG. 2(a-b) and Table 1.
For the molecule B1, the EC50 (usually the concentration that produces a half-maximal response) was 0.00449 µg/mL.
Still for that read-out and setting: for B2 the value was 0.00278 µg/mL; for B3, 0.0091 µg/mL; for B4, 0.00576 µg/mL.
Molecule B5 had an EC50 of 0.00151 µg/mL.
In the case of B6, the half-maximal effective concentration (EC50) turned out to be 0.0067 µg/mL.
As to B7, a half-maximal response (EC50) required 0.0104 µg/mL.
B8 came in with an EC50 of 0.0097 µg/mL.
Still for that read-out and setting: for B9 the value was 0.00052 µg/mL; for B10, 0.00624 µg/mL.
B11 showed an EC50 of 0.0099 µg/mL.
Take B12: the midpoint of the response, the EC50, lay at 0.00493 µg/mL.

Another test addresses T2, B7H3 on the cell surface (PC9 cells; …). The experiment in a line: FACS on cells carrying B7H3 (PC9 per FIG. 2; 293T-B7H3 per method).
The molecule B1 had an EC50 of 0.0526 µg/mL.
Take B2: a half-maximal response (EC50) required 0.177 µg/mL.
B3 yielded an EC50 of 0.248 µg/mL.
The molecule B4 came in with an EC50 of 0.197 µg/mL.
With B5, the midpoint of the response, the EC50, lay at 0.0062 µg/mL.
With B6, the EC50 was 0.234 µg/mL.
In turn, B7 displayed an EC50 of 0.0861 µg/mL.
On the same count and under the same terms, the value for B8 was 0.179 µg/mL.
Consider B9, for which the response was half-maximal at 0.101 µg/mL (EC50).
The molecule B10 returned an EC50 of 0.186 µg/mL.
On the same count and under the same terms, the value for B13 was 0.217 µg/mL; that for B11 was 0.103 µg/mL.
In turn, B12 showed a concentration for a half-maximal effect (EC50) of 0.0713 µg/mL.

The values are drawn from patent publication US20250276082A1 (INNOLAKE BIOPHARMA HANGZHOU, published 2025).
